20 molecules from patent US20200079855A1 (Pfizer, published 2020) can be followed below.

Values joined by “and” are separate entries in the source; they are usually repeats but may differ in a detail not shown here. Equal entries are not always repeated.

Assay [1] concerns the target recombinant human αvβ8 integrin (human) (UniProt P06756). The experiment in a line: ELISA (DELFIA counts) on human αvβ8, Fab titration.
Assay [2] addresses T1, human αvβ8 integrin on U251 cells (human, UniProt P06756 31-1048). Nature of the assay: flow cytometry, Fab binding to fixed U251 cells (MFI APC-A); EC50 unit inferred, axis Log10 [Ab] (nM).
Assay [3] addresses T1, human αvβ8 integrin on U251 cells. The experiment in a line: flow cytometry, Fab binding to fixed U251 cells (ΔMFI, background subtracted); EC50 unit inferred, axis Log10 [FAB] nM.
Assay [4] addresses recombinant human αvβ8 integrin (human) (UniProt P06756). The experiment in a line: SPR (Biacore), Fab affinity of Table 3.

Chain of recombinant human αvβ8 integrin (human) (P06756 31-992 limits assumed, form in doubt, chain 1 of 2): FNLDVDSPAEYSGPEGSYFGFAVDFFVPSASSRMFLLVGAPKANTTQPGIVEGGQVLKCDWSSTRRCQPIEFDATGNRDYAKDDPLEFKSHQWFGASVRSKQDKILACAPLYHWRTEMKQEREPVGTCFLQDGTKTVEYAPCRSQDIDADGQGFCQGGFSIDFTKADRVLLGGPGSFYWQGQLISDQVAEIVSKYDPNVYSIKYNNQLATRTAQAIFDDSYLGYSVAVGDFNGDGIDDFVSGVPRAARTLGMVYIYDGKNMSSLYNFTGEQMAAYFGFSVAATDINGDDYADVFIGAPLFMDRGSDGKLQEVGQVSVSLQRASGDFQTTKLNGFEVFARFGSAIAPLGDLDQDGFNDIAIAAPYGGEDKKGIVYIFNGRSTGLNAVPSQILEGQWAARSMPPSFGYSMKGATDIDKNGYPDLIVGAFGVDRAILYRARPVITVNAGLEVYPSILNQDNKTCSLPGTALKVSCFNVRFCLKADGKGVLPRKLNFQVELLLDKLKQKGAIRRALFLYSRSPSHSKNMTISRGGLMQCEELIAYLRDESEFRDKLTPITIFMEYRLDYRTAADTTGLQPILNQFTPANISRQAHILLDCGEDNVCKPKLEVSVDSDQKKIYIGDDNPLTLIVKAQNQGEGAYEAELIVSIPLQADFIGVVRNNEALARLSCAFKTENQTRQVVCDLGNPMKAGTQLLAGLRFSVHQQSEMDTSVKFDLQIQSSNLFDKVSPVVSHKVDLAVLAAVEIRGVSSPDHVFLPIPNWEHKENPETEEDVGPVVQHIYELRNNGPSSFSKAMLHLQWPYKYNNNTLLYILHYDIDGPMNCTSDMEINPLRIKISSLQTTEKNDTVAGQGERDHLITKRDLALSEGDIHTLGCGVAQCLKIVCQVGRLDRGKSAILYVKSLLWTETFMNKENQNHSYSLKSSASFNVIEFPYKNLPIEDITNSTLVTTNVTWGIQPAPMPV
Chain of recombinant human αvβ8 integrin (human) (chain, as listed by the source limits assumed, form in doubt, chain 2 of 2): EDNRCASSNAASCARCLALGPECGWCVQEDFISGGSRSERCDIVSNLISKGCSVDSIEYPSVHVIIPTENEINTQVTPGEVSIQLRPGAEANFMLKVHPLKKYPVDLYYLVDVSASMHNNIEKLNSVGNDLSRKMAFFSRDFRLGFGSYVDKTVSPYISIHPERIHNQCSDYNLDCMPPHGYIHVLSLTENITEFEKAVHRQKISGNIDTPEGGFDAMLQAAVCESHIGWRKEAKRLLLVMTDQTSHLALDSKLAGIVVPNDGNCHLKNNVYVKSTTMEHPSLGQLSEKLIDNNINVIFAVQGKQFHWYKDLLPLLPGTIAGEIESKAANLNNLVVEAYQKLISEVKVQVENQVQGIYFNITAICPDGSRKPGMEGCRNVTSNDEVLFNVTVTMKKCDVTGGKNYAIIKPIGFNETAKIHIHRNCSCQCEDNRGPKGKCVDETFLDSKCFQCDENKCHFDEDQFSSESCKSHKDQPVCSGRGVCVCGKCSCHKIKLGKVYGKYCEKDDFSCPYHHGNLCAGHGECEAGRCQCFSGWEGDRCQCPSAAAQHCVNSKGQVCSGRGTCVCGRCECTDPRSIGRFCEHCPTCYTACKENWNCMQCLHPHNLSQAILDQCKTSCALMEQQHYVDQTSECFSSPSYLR

B1: ADWA11 VH05/VK01 Fab with N57Q in VH (Fab, V domains shown)
VH: EVQLVESGGGLVQPGGSLRLSCAASGFNIKDYYMNWVRQAPGKGLEWVGWIDPDNGQTIYDPKFQGRFTISADTSKNSAYLQMNSLRAEDTAVYYCARRLLMDYWGQGTLVTVSS
VL: DIQMTQSPSSLSASVGDRVTITCRSTKSLLHFNGNTYLFWYQQKPGKAPKRLIYYMSNLASGVPSRFSGSGSGTDFTLTISSLQPEDFATYYCMQSLEYPFTFGQGTKVEIK
As for B1, the EC50 (read off the curve) in assay [1] came to 1 nM.

B2: ADWA11 2.2 Fab (Fab, V domains shown)
VH: EVQLVESGGGLVQPGGSLRLSCAASGFNIKDYYMNWVRQAPGKGLEWVGWIDPDQGNTIYEPKFQGRFTISADTSKNSAYLQMNSLRAEDTAVYYCARRLLMDYWGQGTLVTVSS
VL: DIQMTQSPSSLSASVGDRVTITCRSTKSLSHFNGNTYLFWYQQKPGKAPKRLIYYMSNLASGVPSRFSGSGSGTDFTLTISSLQPEDFATYYCMQSYEYPFTFGGGTKVEIK
As for B2, the EC50 in assay [2] was found to be 0.225 nM.

B3: ADWA11 VH05-2/VK01 Fab with L30S in VL (Fab, V domains shown)
VH: EVQLVESGGGLVQPGGSLRLSCAASGFNIKDYYMNWVRQAPGKGLEWVGWIDPDQGNTIYEPKFQGRFTISADTSKNSAYLQMNSLRAEDTAVYYCARRLLMDYWGQGTLVTVSS
VL: DIQMTQSPSSLSASVGDRVTITCRSTKSLSHFNGNTYLFWYQQKPGKAPKRLIYYMSNLASGVPSRFSGSGSGTDFTLTISSLQPEDFATYYCMQSLEYPFTFGQGTKVEIK
On to B3, for which the concentration for a half-maximal effect (EC50) in assay [3] was determined as 0.544 nM.

B4: ADWA11 VH02/VK01 Fab (Fab, V domains shown)
VH: EVQLVESGGGLVQPGGSLRLSCAASGFNIKDYYMNWVRQAPGKGLEWVAWIDPDNGNTIYDPKFQGRFTISADNAKNSLYLQMNSLRAEDTAVYYCARRLLMDYWGQGTLVTVSS
VL: DIQMTQSPSSLSASVGDRVTITCRSTKSLLHFNGNTYLFWYQQKPGKAPKRLIYYMSNLASGVPSRFSGSGSGTDFTLTISSLQPEDFATYYCMQSLEYPFTFGQGTKVEIK
For B4, the Kd in assay [4] came out at 1.89 nM.

B5: ADWA11 VH05-2/VK01 Fab with F101L in VL (Fab, V domains shown)
VH: EVQLVESGGGLVQPGGSLRLSCAASGFNIKDYYMNWVRQAPGKGLEWVGWIDPDQGNTIYEPKFQGRFTISADTSKNSAYLQMNSLRAEDTAVYYCARRLLMDYWGQGTLVTVSS
VL: DIQMTQSPSSLSASVGDRVTITCRSTKSLLHFNGNTYLFWYQQKPGKAPKRLIYYMSNLASGVPSRFSGSGSGTDFTLTISSLQPEDFATYYCMQSLEYPLTFGQGTKVEIK
As for B5, in assay [3], the EC50 came out at 1.56 nM.

B6: ADWA11 2.3 Fab (Fab, V domains shown)
VH: EVQLVESGGGLVQPGGSLRLSCAASGFNIKDYYMNWVRQAPGKGLEWVGWIDPDQGNTIYEPKFQGRFTISADTSKNSAYLQMNSLRAEDTAVYYCARRLLMDYWGQGTLVTVSS
VL: DIQMTQSPSSLSASVGDRVTITCRSTKSLSHFNGNTYLFWYQQKPGKAPKRLIYYASNLASGVPSRFSGSGSGTDFTLTISSLQPEDFATYYCQQSLEYPFTFGGGTKVEIK
In assay [2], B6 showed a 50% effective concentration (EC50) of 0.452 nM.

B7: ADWA11 2.3 (F64V) Fab (Fab, V domains shown)
VH: EVQLVESGGGLVQPGGSLRLSCAASGFNIKDYYMNWVRQAPGKGLEWVGWIDPDQGNTIYEPKVQGRFTISADTSKNSAYLQMNSLRAEDTAVYYCARRLLMDYWGQGTLVTVSS
VL: DIQMTQSPSSLSASVGDRVTITCRSTKSLSHFNGNTYLFWYQQKPGKAPKRLIYYASNLASGVPSRFSGSGSGTDFTLTISSLQPEDFATYYCQQSLEYPFTFGGGTKVEIK
With B7, the EC50 in assay [2] is 0.28 nM.

B8: ADWA11 VH03/VK02 Fab (Fab, V domains shown)
VH: EVQLVESGGGLVQPGGSLRLSCAASGFNIKDYYMNWVRQAPGKGLEWVGWIDPDNGNTIYDPKFQGRFTISADNAKNSAYLQMNSLRAEDTAVYYCARRLLMDYWGQGTLVTVSS
VL: DIQMTQSPSSLSASVGDRVTITCRSTKSLLHFNGNTYLFWFQQKPGKAPKRLIYYMSNLASGVPSRFSGSGSGTDFTLTISSLQPEDFATYYCMQSLEYPFTFGQGTKVEIK
As for B8, in assay [4], the Kd was 0.373 nM and 0.37 nM.

B9: ADWA11 VH05-2/VK01 Fab with F64V in VH (Fab, V domains shown)
VH: EVQLVESGGGLVQPGGSLRLSCAASGFNIKDYYMNWVRQAPGKGLEWVGWIDPDQGNTIYEPKVQGRFTISADTSKNSAYLQMNSLRAEDTAVYYCARRLLMDYWGQGTLVTVSS
VL: DIQMTQSPSSLSASVGDRVTITCRSTKSLLHFNGNTYLFWYQQKPGKAPKRLIYYMSNLASGVPSRFSGSGSGTDFTLTISSLQPEDFATYYCMQSLEYPFTFGQGTKVEIK
The molecule B9 displayed an EC50 in assay [3] of 0.588 nM. In other words, the sub-nanomolar range.

B10: ADWA11 VH05/VK01 Fab with D61E in VH (Fab, V domains shown)
VH: EVQLVESGGGLVQPGGSLRLSCAASGFNIKDYYMNWVRQAPGKGLEWVGWIDPDNGNTIYEPKFQGRFTISADTSKNSAYLQMNSLRAEDTAVYYCARRLLMDYWGQGTLVTVSS
VL: DIQMTQSPSSLSASVGDRVTITCRSTKSLLHFNGNTYLFWYQQKPGKAPKRLIYYMSNLASGVPSRFSGSGSGTDFTLTISSLQPEDFATYYCMQSLEYPFTFGQGTKVEIK
On to B10, for which, in assay [1], the EC50 (read off the curve) turned out to be 1 nM.

B11: ADWA11 VH05/VK01 Fab with K30A in VH (Fab, V domains shown)
VH: EVQLVESGGGLVQPGGSLRLSCAASGFNIADYYMNWVRQAPGKGLEWVGWIDPDNGNTIYDPKFQGRFTISADTSKNSAYLQMNSLRAEDTAVYYCARRLLMDYWGQGTLVTVSS
VL: DIQMTQSPSSLSASVGDRVTITCRSTKSLLHFNGNTYLFWYQQKPGKAPKRLIYYMSNLASGVPSRFSGSGSGTDFTLTISSLQPEDFATYYCMQSLEYPFTFGQGTKVEIK
For the molecule B11, the EC50 (read off the curve) in assay [1] amounted to 1 nM.

B12: ADWA11 VH05/VK01 Fab with N55Q in VH (Fab, V domains shown)
VH: EVQLVESGGGLVQPGGSLRLSCAASGFNIKDYYMNWVRQAPGKGLEWVGWIDPDQGNTIYDPKFQGRFTISADTSKNSAYLQMNSLRAEDTAVYYCARRLLMDYWGQGTLVTVSS
VL: DIQMTQSPSSLSASVGDRVTITCRSTKSLLHFNGNTYLFWYQQKPGKAPKRLIYYMSNLASGVPSRFSGSGSGTDFTLTISSLQPEDFATYYCMQSLEYPFTFGQGTKVEIK
Take B12: the EC50 (read off the curve) in assay [1] amounted to 1 nM.

B13: ADWA11 VH05/VK01 Fab with P62A in VH (Fab, V domains shown)
VH: EVQLVESGGGLVQPGGSLRLSCAASGFNIKDYYMNWVRQAPGKGLEWVGWIDPDNGNTIYDAKFQGRFTISADTSKNSAYLQMNSLRAEDTAVYYCARRLLMDYWGQGTLVTVSS
VL: DIQMTQSPSSLSASVGDRVTITCRSTKSLLHFNGNTYLFWYQQKPGKAPKRLIYYMSNLASGVPSRFSGSGSGTDFTLTISSLQPEDFATYYCMQSLEYPFTFGQGTKVEIK
On to B13, for which the EC50 (read off the curve) in assay [1] is 1 nM.

B14: ADWA11 VH05/VK01 Fab with K63A in VH (Fab, V domains shown)
VH: EVQLVESGGGLVQPGGSLRLSCAASGFNIKDYYMNWVRQAPGKGLEWVGWIDPDNGNTIYDPAFQGRFTISADTSKNSAYLQMNSLRAEDTAVYYCARRLLMDYWGQGTLVTVSS
VL: DIQMTQSPSSLSASVGDRVTITCRSTKSLLHFNGNTYLFWYQQKPGKAPKRLIYYMSNLASGVPSRFSGSGSGTDFTLTISSLQPEDFATYYCMQSLEYPFTFGQGTKVEIK
As to B14, the EC50 (read off the curve) in assay [1] amounted to 1 nM.

B15: ADWA11 VH05-2/VK01 Fab with L97Y in VL (Fab, V domains shown)
VH: EVQLVESGGGLVQPGGSLRLSCAASGFNIKDYYMNWVRQAPGKGLEWVGWIDPDQGNTIYEPKFQGRFTISADTSKNSAYLQMNSLRAEDTAVYYCARRLLMDYWGQGTLVTVSS
VL: DIQMTQSPSSLSASVGDRVTITCRSTKSLLHFNGNTYLFWYQQKPGKAPKRLIYYMSNLASGVPSRFSGSGSGTDFTLTISSLQPEDFATYYCMQSYEYPFTFGQGTKVEIK
As for B15, the concentration giving a half-maximal response (EC50) in assay [3] was found to be 0.544 nM.

B16: ADWA11 VH01/VK01 Fab (Fab, V domains shown)
VH: EVQLVESGGGLVQPGGSLRLSCAASGFNIKDYYMNWVRQAPGKGLEWVAWIDPDNGNTIYDPKFQGRFTISRDNAKNSLYLQMNSLRAEDTAVYYCARRLLMDYWGQGTLVTVSS
VL: DIQMTQSPSSLSASVGDRVTITCRSTKSLLHFNGNTYLFWYQQKPGKAPKRLIYYMSNLASGVPSRFSGSGSGTDFTLTISSLQPEDFATYYCMQSLEYPFTFGQGTKVEIK
B16: the equilibrium dissociation constant (Kd) in assay [4] was 6.86 nM.

B17: ADWA11 2.1 (F64V) Fab (Fab, V domains shown)
VH: EVQLVESGGGLVQPGGSLRLSCAASGFNIKDYYMNWVRQAPGKGLEWVGWIDPDQGNTIYEPKVQGRFTISADTSKNSAYLQMNSLRAEDTAVYYCARRLLMDYWGQGTLVTVSS
VL: DIQMTQSPSSLSASVGDRVTITCRSTKSLSHFNGNTYLFWYQQKPGKAPKRLIYYMSNLASGVPSRFSGSGSGTDFTLTISSLQPEDFATYYCQQSLEYPFTFGGGTKVEIK
In the case of B17, in assay [2], the concentration for a half-maximal effect (EC50) was 0.225 nM.

B18: ADWA11 VH03/VK01 Fab (Fab, V domains shown)
VH: EVQLVESGGGLVQPGGSLRLSCAASGFNIKDYYMNWVRQAPGKGLEWVGWIDPDNGNTIYDPKFQGRFTISADNAKNSAYLQMNSLRAEDTAVYYCARRLLMDYWGQGTLVTVSS
VL: DIQMTQSPSSLSASVGDRVTITCRSTKSLLHFNGNTYLFWYQQKPGKAPKRLIYYMSNLASGVPSRFSGSGSGTDFTLTISSLQPEDFATYYCMQSLEYPFTFGQGTKVEIK
With B18, in assay [4], the Kd was 0.0735 nM and < 0.1 nM; the fold lower KD than the mouse hybridoma antibody ADWA-11 is greater than 5 fold.

B19: ADWA11 2.4 (F64V) Fab (Fab, V domains shown)
VH: EVQLVESGGGLVQPGGSLRLSCAASGFNIKDYYMNWVRQAPGKGLEWVGWIDPDQGNTIYEPKVQGRFTISADTSKNSAYLQMNSLRAEDTAVYYCARRLLMDYWGQGTLVTVSS
VL: DIQMTQSPSSLSASVGDRVTITCRSTKSLSHFNGNTYLFWYQQKPGKAPKRLIYYMSSLASGVPSRFSGSGSGTDFTLTISSLQPEDFATYYCQQSLEYPFTFGGGTKVEIK
Regarding B19, the EC50 in assay [2] came to 0.211 nM.

B20: ADWA11 2.1 Fab (Fab, V domains shown)
VH: EVQLVESGGGLVQPGGSLRLSCAASGFNIKDYYMNWVRQAPGKGLEWVGWIDPDQGNTIYEPKFQGRFTISADTSKNSAYLQMNSLRAEDTAVYYCARRLLMDYWGQGTLVTVSS
VL: DIQMTQSPSSLSASVGDRVTITCRSTKSLSHFNGNTYLFWYQQKPGKAPKRLIYYMSNLASGVPSRFSGSGSGTDFTLTISSLQPEDFATYYCQQSLEYPFTFGGGTKVEIK
Consider B20, for which, in assay [2], the concentration for a half-maximal effect (EC50) came to 0.218 nM.
